The values that follow come from patent publication US20150239981A1 (Hoffmann-La Roche, published 2015).

Experiment [1] deals with T1, FcγRI (human, UniProt P12314 16-288, limits assumed).
T1 construct: also called FcγR1; FcγRI receptor
Nature of the experiment: SPR Biacore, FIG. 1b. On the procedure:
(§1) Binding affinities of different FcγRs towards immunoglobulins were measured by Surface Plasmon Resonance (SPR) using a Biacore T100 instrument (GE Healthcare) at 25° C.

Experiment [2] concerns the target T2, FcγRIIIA-V158 (human, UniProt P08637 17-208, limits assumed).
T2 construct: Soluble analyte in SPR, 0 to 12800 nM; construct not described; also called FcγRIIIA receptor
The experiment in a line: SPR Biacore, antibody immobilised, receptor as analyte, FIG. 1e. On the procedure: as §1
In general terms: Surface plasmon resonance follows binding to a sensor surface in real time, without labels.

T1 sequence (P12314 16-288 limits assumed): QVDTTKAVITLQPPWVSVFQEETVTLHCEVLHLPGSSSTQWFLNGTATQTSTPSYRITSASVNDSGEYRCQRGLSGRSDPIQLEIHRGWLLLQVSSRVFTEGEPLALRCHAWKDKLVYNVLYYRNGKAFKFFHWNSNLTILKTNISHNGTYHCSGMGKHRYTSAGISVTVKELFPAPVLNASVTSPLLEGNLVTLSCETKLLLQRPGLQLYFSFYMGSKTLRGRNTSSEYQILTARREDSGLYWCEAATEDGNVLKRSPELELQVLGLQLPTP
T2 sequence (P08637 17-208 F176V limits assumed): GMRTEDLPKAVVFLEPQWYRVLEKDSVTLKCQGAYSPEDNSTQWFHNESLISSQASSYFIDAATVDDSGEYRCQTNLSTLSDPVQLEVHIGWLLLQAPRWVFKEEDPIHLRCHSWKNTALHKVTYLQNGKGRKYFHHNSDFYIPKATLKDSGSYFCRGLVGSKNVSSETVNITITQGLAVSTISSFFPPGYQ

B1: CD9 antibody IgG1-LALA (mAb 40A746.2.3) (antibody)
heavy: not shown
light: DIQMTQTTSSLSASLGDRVTISCSASQGISNYLNWYQQKPDGNVKLLIYYTSSLHSGVPSRFSGSGSGTDYSLTISNLEPEDIATYYCQQYSKLPYTFGGGTKLEIKRTVAAPSVFIFPPSDEQLKSGTASVVCLLNNFYPREAKVQWKVDNALQSGNSQESVTEQDSKDSTYSLSSTLTLSKADYEKHKVYACEVTHQGLSSPVTKSFNRGEC
notes: also called chim-hu-IgG1-LALA
As to B1, the binding result in experiment [1] and in experiment [2] was “binds” throughout.

B2: CD9 antibody IgG4-SPLE (mAb 40A746.2.3) (antibody)
heavy: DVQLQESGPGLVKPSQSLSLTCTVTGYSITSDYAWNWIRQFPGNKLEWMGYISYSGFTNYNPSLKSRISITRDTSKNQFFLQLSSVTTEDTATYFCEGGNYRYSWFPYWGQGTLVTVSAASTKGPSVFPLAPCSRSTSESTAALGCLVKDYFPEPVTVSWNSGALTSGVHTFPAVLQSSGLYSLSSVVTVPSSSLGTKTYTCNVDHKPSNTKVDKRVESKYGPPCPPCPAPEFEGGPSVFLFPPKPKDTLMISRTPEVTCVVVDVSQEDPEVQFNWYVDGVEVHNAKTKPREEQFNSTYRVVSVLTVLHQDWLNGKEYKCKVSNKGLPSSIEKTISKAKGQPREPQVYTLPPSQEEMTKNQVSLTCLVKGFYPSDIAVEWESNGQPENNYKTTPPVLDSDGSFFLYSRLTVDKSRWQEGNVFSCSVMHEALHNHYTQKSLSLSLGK
light: DIQMTQTTSSLSASLGDRVTISCSASQGISNYLNWYQQKPDGNVKLLIYYTSSLHSGVPSRFSGSGSGTDYSLTISNLEPEDIATYYCQQYSKLPYTFGGGTKLEIKRTVAAPSVFIFPPSDEQLKSGTASVVCLLNNFYPREAKVQWKVDNALQSGNSQESVTEQDSKDSTYSLSSTLTLSKADYEKHKVYACEVTHQGLSSPVTKSFNRGEC
notes: also called chim-hu-IgG4-SPLE
Consider B2, for which the binding result in experiment [1] and in experiment [2] was “binds” throughout.

B3: CD9 antibody IgG1-P329G (mAb 40A746.2.3) (antibody)
heavy: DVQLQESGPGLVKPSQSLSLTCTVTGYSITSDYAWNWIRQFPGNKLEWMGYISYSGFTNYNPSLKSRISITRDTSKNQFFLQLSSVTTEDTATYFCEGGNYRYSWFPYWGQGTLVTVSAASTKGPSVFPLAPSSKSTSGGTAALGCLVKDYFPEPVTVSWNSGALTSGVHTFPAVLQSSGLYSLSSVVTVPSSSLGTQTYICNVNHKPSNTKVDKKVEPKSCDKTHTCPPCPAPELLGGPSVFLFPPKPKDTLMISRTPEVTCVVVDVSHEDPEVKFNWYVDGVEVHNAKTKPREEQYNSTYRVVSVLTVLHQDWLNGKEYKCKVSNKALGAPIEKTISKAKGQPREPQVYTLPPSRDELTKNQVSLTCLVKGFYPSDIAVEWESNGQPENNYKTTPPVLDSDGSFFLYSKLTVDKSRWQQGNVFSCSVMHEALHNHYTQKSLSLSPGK
light: DIQMTQTTSSLSASLGDRVTISCSASQGISNYLNWYQQKPDGNVKLLIYYTSSLHSGVPSRFSGSGSGTDYSLTISNLEPEDIATYYCQQYSKLPYTFGGGTKLEIKRTVAAPSVFIFPPSDEQLKSGTASVVCLLNNFYPREAKVQWKVDNALQSGNSQESVTEQDSKDSTYSLSSTLTLSKADYEKHKVYACEVTHQGLSSPVTKSFNRGEC
notes: also called chim-hu-IgG-WT-P329G; TA IgG1 P329G
With B3, in experiment [1], the binding result is “binds”.
